System: Escherichia coli TOP10
Assay: shrunken log2 fold change of peptide-encoding DNA abundance (4.5 h post-induction vs induction); higher = less antimicrobial activity (less host growth inhibition)
Conditions: time post-induction: 4.5 h; library: site-saturation at positions 5, 18, 19, 20
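Note: peptides expressed intracellularly from a pBAD plasmid library in pooled LB shake-flask culture, induced with 0.3% L-arabinose, DNA abundance read by NGS, three biological replicates, DESeq2 with apeglm shrinkage.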

Row | Sequence | shrunken log2 fold change
1 | RRIRHRPPRLPRPRPRPGKRPRP | -0.0157
2 | RRIRVRPPRLPRPRPRPDSMPRP | -0.103
3 | RRIRVRPPRLPRPRPRPVCVPRP | -0.0658
4 | RRIRHRPPRLPRPRPRPETRPRP | 0.013
5 | RRIRDRPPRLPRPRPRPVYEPRP | -0.105
6 | RRIRQRPPRLPRPRPRPDYRPRP | -0.00448
7 | RRIRTRPPRLPRPRPRPQHTPRP | -0.733
8 | RRIRLRPPRLPRPRPRPYFHPRP | -1.08
9 | RRIRSRPPRLPRPRPRPLNEPRP | -0.177
10 | RRIRWRPPRLPRPRPRPNQRPRP | 0.181
11 | RRIRKRPPRLPRPRPRPTMNPRP | -0.00264
12 | RRIRHRPPRLPRPRPRPCWRPRP | 0.0476
13 | RRIRPRPPRLPRPRPRPQTWPRP | -0.254
14 | RRIRRRPPRLPRPRPRPQAMPRP | 0.0414
15 | RRIRERPPRLPRPRPRPDSRPRP | -0.0302
16 | RRIRPRPPRLPRPRPRPAHKPRP | -0.46
17 | RRIRHRPPRLPRPRPRPNINPRP | -1.31
18 | RRIRARPPRLPRPRPRPYWYPRP | -0.763
19 | RRIRPRPPRLPRPRPRPHPKPRP | 0.347
20 | RRIRRRPPRLPRPRPRPCCHPRP | -0.345
21 | RRIRRRPPRLPRPRPRPTWYPRP | 0.0312
22 | RRIRRRPPRLPRPRPRPFENPRP | 0.0967
23 | RRIRRRPPRLPRPRPRPSKLPRP | -0.0224
24 | RRIRIRPPRLPRPRPRPKESPRP | -0.258
25 | RRIRFRPPRLPRPRPRPFGLPRP | -0.635

Row | Sequence | shrunken log2 fold change
26 | RRIRGRPPRLPRPRPRPHMLPRP | 0.142
27 | RRIRMRPPRLPRPRPRPNAPPRP | -0.0273
28 | RRIRARPPRLPRPRPRPRGGPRP | 0.737
29 | RRIRTRPPRLPRPRPRPSHPPRP | -0.416
30 | RRIRTRPPRLPRPRPRPFTTPRP | -0.0286
31 | RRIRNRPPRLPRPRPRPVSLPRP | -0.396
32 | RRIRERPPRLPRPRPRPKQYPRP | -0.292
33 | RRIRDRPPRLPRPRPRPVLFPRP | 0.13
34 | RRIRARPPRLPRPRPRPCDKPRP | -0.152
35 | RRIRNRPPRLPRPRPRPDEMPRP | -0.00822
36 | RRIRSRPPRLPRPRPRPMYSPRP | -1.24
37 | RRIRGRPPRLPRPRPRPRGCPRP | 1.37
38 | RRIRWRPPRLPRPRPRPKRLPRP | 2.54
39 | RRIRERPPRLPRPRPRPINPPRP | -0.00597
40 | RRIRIRPPRLPRPRPRPVSVPRP | -0.191
41 | RRIRKRPPRLPRPRPRPWHPPRP | 0.143
42 | RRIRVRPPRLPRPRPRPCSSPRP | -0.201
43 | RRIRIRPPRLPRPRPRPQCNPRP | -0.0824
44 | RRIRERPPRLPRPRPRPDHIPRP | -0.537
45 | RRIRWRPPRLPRPRPRPKWHPRP | 0.184
46 | RRIRIRPPRLPRPRPRPEWAPRP | 0.0716
47 | RRIRVRPPRLPRPRPRPARMPRP | 0.425
48 | RRIRQRPPRLPRPRPRPGLTPRP | -0.483
49 | RRIRWRPPRLPRPRPRPDNVPRP | -0.26
50 | RRIRYRPPRLPRPRPRPQVTPRP | -0.00804

Row | Sequence | shrunken log2 fold change
51 | RRIRRRPPRLPRPRPRPTGTPRP | 1.07
52 | RRIRCRPPRLPRPRPRPNFHPRP | -0.259
53 | RRIRGRPPRLPRPRPRPWMGPRP | -0.0634
54 | RRIRVRPPRLPRPRPRPNFWPRP | 0.137
55 | RRIRDRPPRLPRPRPRPQLYPRP | -0.162
56 | RRIRGRPPRLPRPRPRPKHVPRP | 0.0824
57 | RRIRARPPRLPRPRPRPVIPPRP | -0.296
58 | RRIRLRPPRLPRPRPRPPPGPRP | 1.29
59 | RRIRARPPRLPRPRPRPWVYPRP | -0.0996
60 | RRIRWRPPRLPRPRPRPCRPPRP | 0.115
61 | RRIRYRPPRLPRPRPRPNWGPRP | -0.0851
62 | RRIRYRPPRLPRPRPRPSQYPRP | -0.209
63 | RRIRLRPPRLPRPRPRPNSHPRP | -0.404
64 | RRIRKRPPRLPRPRPRPGQMPRP | 0.00812
65 | RRIRRRPPRLPRPRPRPVQIPRP | 0.14
66 | RRIRIRPPRLPRPRPRPREPPRP | 0.183
67 | RRIRERPPRLPRPRPRPDQMPRP | -0.161
68 | RRIRDRPPRLPRPRPRPIFAPRP | 0.142
69 | RRIRERPPRLPRPRPRPMLWPRP | -0.0445
70 | RRIRSRPPRLPRPRPRPQAPPRP | 0.142
71 | RRIRTRPPRLPRPRPRPFQIPRP | -0.103
72 | RRIRWRPPRLPRPRPRPLHMPRP | -0.0711
73 | RRIRGRPPRLPRPRPRPERCPRP | 0.203
74 | RRIRMRPPRLPRPRPRPEDKPRP | 2.94
75 | RRIRRRPPRLPRPRPRPAIFPRP | -0.0696

Row | Sequence | shrunken log2 fold change
76 | RRIRFRPPRLPRPRPRPGSAPRP | 0.182
77 | RRIRCRPPRLPRPRPRPLVIPRP | -0.401
78 | RRIRTRPPRLPRPRPRPMLEPRP | 0.018
79 | RRIRPRPPRLPRPRPRPFTGPRP | -0.0818
80 | RRIRCRPPRLPRPRPRPFQFPRP | 0.133
81 | RRIRQRPPRLPRPRPRPYFVPRP | -0.472
82 | RRIRLRPPRLPRPRPRPAAKPRP | 0.602
83 | RRIRARPPRLPRPRPRPIYIPRP | 2.43
84 | RRIRQRPPRLPRPRPRPRFSPRP | 0.0453
85 | RRIRNRPPRLPRPRPRPWWSPRP | 0.0428
86 | RRIRCRPPRLPRPRPRPPLIPRP | -0.000572
87 | RRIRPRPPRLPRPRPRPKNGPRP | 0.069
88 | RRIRGRPPRLPRPRPRPGQNPRP | 0.0139
89 | RRIRLRPPRLPRPRPRPQYMPRP | -0.0107
90 | RRIRNRPPRLPRPRPRPTIDPRP | -0.492
91 | RRIRRRPPRLPRPRPRPMYNPRP | -0.137
92 | RRIRTRPPRLPRPRPRPDCQPRP | -0.107
93 | RRIRGRPPRLPRPRPRPRGAPRP | 1.66
94 | RRIRRRPPRLPRPRPRPNQSPRP | -0.13
95 | RRIRGRPPRLPRPRPRPEWVPRP | 0.875
96 | RRIRMRPPRLPRPRPRPNYPPRP | -0.445
97 | RRIRSRPPRLPRPRPRPKHQPRP | 0.155
98 | RRIRPRPPRLPRPRPRPKMTPRP | 0.0519
99 | RRIRGRPPRLPRPRPRPLAYPRP | 0.721
100 | RRIRARPPRLPRPRPRPDLQPRP | 0.79

Row | Sequence | shrunken log2 fold change
101 | RRIRMRPPRLPRPRPRPYWPPRP | -0.311
102 | RRIRQRPPRLPRPRPRPHKKPRP | -0.215
103 | RRIRMRPPRLPRPRPRPQSCPRP | -0.00838
104 | RRIRTRPPRLPRPRPRPWWSPRP | -0.143
105 | RRIRFRPPRLPRPRPRPYKSPRP | -0.382
106 | RRIRNRPPRLPRPRPRPMNDPRP | 0.42
107 | RRIRWRPPRLPRPRPRPHPDPRP | 0.0175
108 | RRIRHRPPRLPRPRPRPYIMPRP | -0.431
109 | RRIRPRPPRLPRPRPRPTNWPRP | 0.214
110 | RRIRVRPPRLPRPRPRPQTMPRP | -0.689
111 | RRIRARPPRLPRPRPRPQDYPRP | -0.159
112 | RRIRSRPPRLPRPRPRPGLWPRP | 0.266
113 | RRIRSRPPRLPRPRPRPRHPPRP | 0.215
114 | RRIRPRPPRLPRPRPRPTDQPRP | 0.399
115 | RRIRHRPPRLPRPRPRPTIWPRP | -0.284
116 | RRIRSRPPRLPRPRPRPTAGPRP | 0.679
117 | RRIRVRPPRLPRPRPRPPITPRP | -0.117
118 | RRIRCRPPRLPRPRPRPPSPPRP | 0.724
119 | RRIRIRPPRLPRPRPRPVQIPRP | 0.072
120 | RRIRARPPRLPRPRPRPPHRPRP | 0.931
121 | RRIRSRPPRLPRPRPRPCVQPRP | -0.0792
122 | RRIRLRPPRLPRPRPRPYVQPRP | -0.144
123 | RRIRHRPPRLPRPRPRPPHIPRP | -0.287
124 | RRIRRRPPRLPRPRPRPPVMPRP | 0.403
125 | RRIRFRPPRLPRPRPRPYMTPRP | -0.49

Row | Sequence | shrunken log2 fold change
126 | RRIRNRPPRLPRPRPRPQGIPRP | -0.216
127 | RRIRTRPPRLPRPRPRPKVKPRP | 0.00985
128 | RRIRWRPPRLPRPRPRPNGWPRP | 0.185
129 | RRIRHRPPRLPRPRPRPPNKPRP | -0.171
130 | RRIRVRPPRLPRPRPRPDLTPRP | -0.263
131 | RRIRTRPPRLPRPRPRPHPTPRP | 0.106
132 | RRIRGRPPRLPRPRPRPFQIPRP | -0.0147
133 | RRIRKRPPRLPRPRPRPSLVPRP | 0.174
134 | RRIRLRPPRLPRPRPRPKWAPRP | -0.0391
135 | RRIRTRPPRLPRPRPRPPAYPRP | -0.0816
136 | RRIRNRPPRLPRPRPRPETFPRP | 0.00884
137 | RRIRTRPPRLPRPRPRPQHAPRP | -0.0164
138 | RRIRDRPPRLPRPRPRPLSCPRP | -0.212
139 | RRIRDRPPRLPRPRPRPHEPPRP | 0.211
140 | RRIRKRPPRLPRPRPRPFPQPRP | 0.11
141 | RRIRDRPPRLPRPRPRPIYKPRP | -0.175
142 | RRIRKRPPRLPRPRPRPENNPRP | 0.179
143 | RRIRCRPPRLPRPRPRPWAMPRP | -0.226
144 | RRIRWRPPRLPRPRPRPFGLPRP | 0.0452
145 | RRIRPRPPRLPRPRPRPPYVPRP | -0.0964
146 | RRIRARPPRLPRPRPRPSKAPRP | -0.151
147 | RRIRLRPPRLPRPRPRPEVVPRP | 0.0493
148 | RRIRTRPPRLPRPRPRPDLKPRP | 0.156
149 | RRIRNRPPRLPRPRPRPPYTPRP | -0.876
150 | RRIRPRPPRLPRPRPRPPLGPRP | 0.585
